Measurements as given in publication PMC11602133, “Uncoupling [sequence]’s functions through modification of a protein motif identified by co-ortholog analysis” (Nucleic Acids Research, 2024).

Target: the molecule itself
Assay: native gel or EMSA; in vitro produced proteins (wheat germ TnT) mixed with a DY-682 labelled ~100 bp DNA probe containing a CArG-box (SAUR10 probe); protein complexes read from the shifted bands on DNA; anti-FLAG antibody added for supershift where FUL-FLAG was used

B1: FRUITFULL (FUL), Arabidopsis, in vitro produced (natural protein)
chain: not shown
notes: also called FUL(ST); source: in vitro translated (TnT SP6 High-Yield Wheat Germ Protein Expression System, pSPUTK vector)
B1 was tested, and the “stoichiometry N” value was 2.
